One molecule from patent US20240016892A1 (SHATTUCK LABS, published 2024) can be followed below.

Experiment [1] deals with T1, cell surface human PVR (CHO-K1/hPVR cells) (human, UniProt P15151 21-417).
T1 construct: whole, on cells; also called cell surface PVR; CD155(PVR)
T1 sequence (looked up): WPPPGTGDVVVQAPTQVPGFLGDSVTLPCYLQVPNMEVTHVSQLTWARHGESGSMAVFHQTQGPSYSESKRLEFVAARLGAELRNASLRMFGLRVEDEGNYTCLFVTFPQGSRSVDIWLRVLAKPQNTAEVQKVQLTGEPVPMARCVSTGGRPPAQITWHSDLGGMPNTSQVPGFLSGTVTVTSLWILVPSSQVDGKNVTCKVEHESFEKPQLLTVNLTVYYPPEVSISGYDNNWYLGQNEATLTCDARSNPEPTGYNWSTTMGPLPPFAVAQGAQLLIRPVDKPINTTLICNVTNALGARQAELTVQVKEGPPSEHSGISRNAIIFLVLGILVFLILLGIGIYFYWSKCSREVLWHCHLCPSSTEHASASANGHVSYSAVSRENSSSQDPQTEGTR
Briefly: flow cytometry, CHO-K1 cells stably expressing human PVR; cell surface PVR.

For another experiment, the target named is T2, recombinant human LTβR (human, UniProt P36941 31-227, limits assumed).
T2 construct: Bought from Acro Biosystems or Sino Biological; construct limits and tag not specified; also called rhLTβR; TNFRSF3
Briefly: BLI (Octet), affinity for recombinant human LTβR compared with Fc-LIGHT. The procedure: (§1) Bio-Layer interferometry-based affinity testing was used to determine the on-rates (Ka), off-rates (Kd) and binding affinities (KD) of the TIGIT-Fc-LIGHT chimeric protein to intended binding targets, using histidine- or biotin-tagged versions of the human recombinant proteins (PVR, HVEM, LTβR, PVRL2, PVRL3, and Nectin-4; purchased from Acro Biosystems or Sino Biological). Commercially available or internally produced single-sided fusion protein controls (TIGIT-Fc and Fc-LIGHT) were also tested in parallel. Targets were immobilized at a concentration of 3 μg/mL in Kinetics buffer (PBS/0.1% Tween-20/1% BSA; pH7.0) to anti-pentaHis or streptavidin coated biosensors. Direct binding of fusion proteins to recombinant target proteins was performed on an Octet-Red96 BLI instrument, using association and dissociation times of 90 and 120 seconds, respectively.
(§2) Protein-protein interactions (PPI) between the fusion proteins and their cognate binding partners were characterized using both recombinant protein and cell-based methods. First, bio-layer interferometry-based affinity testing was used to assess the kinetics of receptor/ligand binding.

The next experiment deals with T3, recombinant human HVEM (human, UniProt Q92956 39-202).
T3 construct: Construct limits and tag not specified; also called rhHVEM; TNFRSF14
T3 sequence (looked up): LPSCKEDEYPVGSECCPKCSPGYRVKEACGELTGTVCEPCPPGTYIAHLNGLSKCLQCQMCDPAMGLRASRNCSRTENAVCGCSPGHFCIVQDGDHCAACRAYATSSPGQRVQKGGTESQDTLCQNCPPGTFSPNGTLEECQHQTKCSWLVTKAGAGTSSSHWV
Briefly: BLI (Octet-Red96), tagged rhHVEM immobilised on biosensor. Here is the method:
as §1, §2

Experiment [2] deals with T4, recombinant human Nectin-4 (human, UniProt Q96NY8 32-349).
T4 sequence (looked up): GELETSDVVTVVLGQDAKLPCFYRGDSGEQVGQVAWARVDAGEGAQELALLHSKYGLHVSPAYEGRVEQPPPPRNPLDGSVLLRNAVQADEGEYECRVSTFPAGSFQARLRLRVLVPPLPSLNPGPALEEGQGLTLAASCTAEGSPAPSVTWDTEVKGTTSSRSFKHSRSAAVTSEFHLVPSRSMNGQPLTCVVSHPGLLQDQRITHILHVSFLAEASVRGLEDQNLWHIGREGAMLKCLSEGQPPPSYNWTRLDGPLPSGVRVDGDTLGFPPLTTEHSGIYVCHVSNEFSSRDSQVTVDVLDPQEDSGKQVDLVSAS
Description: MSD: capture hNectin-4; detection anti-Fc-HRP.

The target in experiment [3] is T5, recombinant human CD112 (PVRL2) (human, UniProt Q92692 32-360).
T5 construct: also called rhCD112 (PVRL2); Nectin-2
T5 sequence (looked up): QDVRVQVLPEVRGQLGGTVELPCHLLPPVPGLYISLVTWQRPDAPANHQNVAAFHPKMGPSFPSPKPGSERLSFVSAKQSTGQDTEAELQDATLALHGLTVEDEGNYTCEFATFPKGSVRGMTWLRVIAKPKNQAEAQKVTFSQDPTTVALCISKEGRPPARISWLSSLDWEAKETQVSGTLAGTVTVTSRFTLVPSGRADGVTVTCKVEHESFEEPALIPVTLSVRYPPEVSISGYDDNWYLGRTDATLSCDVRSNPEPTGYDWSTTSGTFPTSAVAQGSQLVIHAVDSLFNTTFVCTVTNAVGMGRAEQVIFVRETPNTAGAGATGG
Description: BLI (Octet-Red96), tagged rhCD112 (PVRL2) immobilised on biosensor. The procedure:
as §1

T2 sequence (P36941 31-227 limits assumed): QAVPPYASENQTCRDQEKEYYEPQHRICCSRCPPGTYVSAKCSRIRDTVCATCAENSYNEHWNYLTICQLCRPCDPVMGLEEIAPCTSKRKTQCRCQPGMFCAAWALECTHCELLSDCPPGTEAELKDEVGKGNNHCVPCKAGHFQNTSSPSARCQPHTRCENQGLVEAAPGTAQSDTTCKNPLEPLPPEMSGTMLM

B1: human TIGIT-Fc-LIGHT chimeric protein (Fc fusion)
chain: MMTGTIETTGNISAEKGGSIILQCHLSSTTAQVTQVNWEQQDQLLAICNADLGWHISPSFKDRVAPGPGLGLTLQSLTVNDTGEYFCIYHTYPDGTYTGRIFLEVLESSVAEHGARFQIPSKYGPPCPPCPAPEFLGGPSVFLFPPKPKDQLMISRTPEVTCVVVDVSQEDPEVQFNWYVDGVEVHNAKTKPREEQFNSTYRVVSVLTVLHQDWLSGKEYKCKVSSKGLPSSIEKTISNATGQPREPQVYTLPPSQEEMTKNQVSLTCLVKGFYPSDIAVEWESNGQPENNYKTTPPVLDSDGSFFLYSRLTVDKSRWQEGNVFSCSVLHEALHNHYTQKSLSLSLGKIEGRMDLQLHWRLGEMVTRLPDGPAGSWEQLIQERRSHEVNPAAHLTGANSSLTGSGGPLLWETQLGLAFLRGLSYHDGALVVTKAGYYYIYSKVQLGGVGCPLGLASTITHGLYKRTPRYPEELELLVSQQSPCGRATSSSRVWWDSSFLGGVVHLEAGEKVVVRVLDERLVRLRDGTRSYFGAFMV
notes: Said to exist as a hexamer (dimer of trimers); Glycosylated; also called hTIGIT-Fc-LIGHT; TIGIT-Fc(IgG4)-LIGHT
As to B1, the midpoint of the response in experiment [1], the EC50, lay at 35.4 nM. Also, in the experiment with recombinant human LTβR, the “fold affinity relative to Fc-LIGHT control” value is approximately 8 fold. In addition, in the experiment with recombinant human HVEM, the dissociation constant (Kd) is 6.49 nM, the koff stood at 0.000173 s⁻¹ and the kon turned out to be 26100 M⁻¹ s⁻¹. Also, the binding result in experiment [2] is recorded as “binds”. In experiment [3], the Kd stood at 3 nM, the dissociation rate constant (koff) is 0.000471 s⁻¹ and the kon was 172000 M⁻¹ s⁻¹.

As usually defined, the EC50 is the concentration that produces a half-maximal response. The low end stands for higher potency in that assay, the high end for lower potency in that assay. For orientation: Kd means a measure of binding affinity in units of concentration. Usually koff stands for the rate constant with which the complex falls apart. One may read the kon as the second-order rate constant of association.
